The record followed here is patent US6835382B2, “Ii peptide therapeutics to enhance antigen presentation” (University of Massachusetts, priority 1996, dated 2004).

The subject of test [1] is murine E^k MHC class II allele. The test can be described thus: simultaneous assay, E^k allele (CH27 APC, TPc9.1 T hybridoma, THMCC82-103 or PGCC81-104). Format: cell-based. The procedure, abridged:
(§1)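 Read-out is [3H]TdR incorporation into HT-2 indicator cells exposed to supernatant from a 24 h primary culture. That culture combined mitomycin C-treated APC (5×10^6 cells/mL, 0.025 mg/mL mitomycin C, 20 min, 37° C), peptide, effector compound and T hybridoma, all added at once.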

Test [2] deals with T1, murine E^d MHC class II allele (Mus musculus, UniProt P01904+P01915).
T1 sequence (P01904 26-255): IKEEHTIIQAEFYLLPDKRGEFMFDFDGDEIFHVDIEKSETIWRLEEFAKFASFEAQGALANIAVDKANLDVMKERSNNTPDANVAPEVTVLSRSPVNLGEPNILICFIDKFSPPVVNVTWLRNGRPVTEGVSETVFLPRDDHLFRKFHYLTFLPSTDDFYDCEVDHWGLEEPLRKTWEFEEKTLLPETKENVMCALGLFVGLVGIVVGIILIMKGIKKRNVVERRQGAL
T1 sequence (P01915 27-264 limits assumed): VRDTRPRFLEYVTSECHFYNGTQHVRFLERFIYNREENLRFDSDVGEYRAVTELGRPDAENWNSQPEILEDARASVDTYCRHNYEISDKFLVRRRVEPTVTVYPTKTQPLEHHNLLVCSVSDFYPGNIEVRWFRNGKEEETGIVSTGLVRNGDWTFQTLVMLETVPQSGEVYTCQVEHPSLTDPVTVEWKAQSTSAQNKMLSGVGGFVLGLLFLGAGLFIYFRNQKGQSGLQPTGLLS
The test can be described thus: simultaneous assay, E^d allele (A20 APC, G28.C9 T hybridoma, HEL106-116; HT-2 [3H]TdR readout). Type of test: cell-based. The arrangement: The A20 and CH27 B cell lymphoma lines express H-2^d and H-2^k alleles, respectively; endogenous in cells; host or cells: A20 B cell lymphoma (mitomycin C-treated or paraformaldehyde-fixed). In outline:
as §1

Test [3] has as its system HLA-DR1 molecules. The test can be described thus: release of biotin-labeled hMBP(90-102) from HLA-DR1 without unlabeled antigenic peptide (assay I). Type of test: binding, human. The note with it: for release of biotin-labeled hMBP(90-102) from HLA-DR1 without second unlabeled antigenic peptide, in words: Table 36 (compounds tested at 64 μM); for Relative Release: Table 36, AE101 series compound 64 μM, fraction of o.d. of positive control (PBS only = 1.0; negative control = 0.0).

Test [4] relates to HLA-DR1 molecules. Put plainly: exchange of biotinylated hMBP(90-102) into antigenic peptide-loaded HLA-DR1 (assay III). Type of test: binding, human. As to conditions: Table 38; HLA-DR1 preloaded with unlabeled hMBP(90-102) 50 μM; exchange with biotin-labeled hMBP(90-102) 50 μM, 37° C., 1 h; fraction of positive control o.d.; no enhancement = 0.08.
In test [5] the target is T2, HLA-DR1 molecules (Homo sapiens, UniProt P01903+P01911, A100R/D57E/F55L/F60I/F76Y/I96L/L162R/M171V/P40L/Q125E/R42F/V115G/Y59C).
T2 construct: The HLA-DR alpha gene was truncated after Asn^192 to remove transmembranal and cytoplasmic regions from the protein product; A gene coding for the HLA-DR1 beta chain was truncated after position Lys^198, again to delete the transmembranal region; made in house; host or cells: insect cell line printed as HS / H5 (Invitrogen), co-infected with two baculoviruses; concentrated culture supernatant captured on 12CA5 antibody
The test can be described thus: binding of biotin-labeled hMBP(90-102) to "empty" HLA-DR1 (assay IV). As to conditions: Table 39; AE101 series compound 64 μM; biotin-labeled hMBP(90-102) 50 μM, 37° C., 1 h; no enhancement = 1.

In test [6] the target is T1, murine E^d MHC class II allele. Put plainly: AE101 series peptide prepulse assay, E^d allele. Format: cell-based. As to conditions: Table 35; AE101 series peptide prepulse 64 μM; antigenic peptide 0.3 μM; supernatant dilution 1:4. How it is done:
(§2) Table 35: Activities of multiple substitution analogs of AE235, targeting the E^k and E^d allele, in an AE101 series peptide prepulse assay. In this assay the concentration of AE101 series peptides used during the prepulse was 64 μM. The concentrations of antigenic peptides were 0.3 μM for Ed and 0.4 μM for E^k. The supernatant dilutions taken into the HT-2 cell assay was 1:4 for E and 1:2 for E^k. The AE381 peptide is a head-to-tail cyclization: the amino terminal amino group is coupled through an amide linkage to the carboxyl terminal group. The AE 382 peptide is a side-to-tail cyclization: the epsilon amino group of Lys^4 is coupled through an amide linkage to the carboxyl terminal group.
(§3) AE101 series peptide prepulse assays were carried out in the E^d and E^k systems as described for simultaneous competition assays with the following modifications. Fixed APC were first incubated for 6 h at 1×10^6DMEM-5% FCS with 64 μM of each AE101 series peptide or with PBS. The APC were then washed four times with ten volumes of DMEM-5% FCS, and were cocultured with T hybridoma cells and the indicated submaximal doses of antigenic peptides used in the simultaneous competition assays. The baseline T cell response was measured by culturing T hybridoma cells with antigenic peptide and PBS-pretreated APC.

Test [7] relates to murine E^k MHC class II allele. The test can be described thus: AE101 series peptide prepulse assay, E^k allele. Type of test: cell-based. The note with it: Table 35; AE101 series peptide prepulse 64 μM; antigenic peptide 0.4 μM; supernatant dilution 1:2. The procedure:
as §2, §3

Test [8] addresses soluble HLA-DR1 (HLA-DR alpha truncated after Asn192 with a C-terminal nine amino acid HA epitope tail; HLA-DR1 beta truncated after Lys198), made in Baculovirus-infected insect cells (human). Put plainly: loading ELISA: empty tethered HLA-DR1 with biotin-hMBP(90-102) 50 uM and AE peptide 64 uM, 1 h 37 C; biotin bound read by avidin-HRP. A general note: An ELISA detects its analyte on a solid surface through an enzyme-linked reagent.

For test [9] the target is unchanged. Put plainly: exchange ELISA: tethered HLA-DR1 preloaded with unlabeled hMBP(90-102) 50 uM, washed; AE peptide plus biotin-hMBP(90-102) 50 uM, 1 h 37 C; biotin bound as fraction of positive control (overnight loading).
For test [10] the target is unchanged. Put plainly: release ELISA as Table 36 (biotin-hMBP(90-102) left on tethered HLA-DR1); AE peptide 1 uM, without unlabeled hMBP(90-102).
Test [11] has the same target. The test can be described thus: release ELISA as Table 36 (biotin-hMBP(90-102) left on tethered HLA-DR1); AE peptide 64 uM, with unlabeled hMBP(90-102) 250 uM.
Test [12] has the same target. The test can be described thus: release ELISA as Table 36 (biotin-hMBP(90-102) left on tethered HLA-DR1); AE peptide 64 uM, without unlabeled hMBP(90-102).
The target is the same in test [13]. Put plainly: release ELISA as Table 36 (biotin-hMBP(90-102) left on tethered HLA-DR1); AE peptide 1 uM, with unlabeled hMBP(90-102) 250 uM.
The target is the same in test [14]. Put plainly: release ELISA: soluble HLA-DR1 tethered by 12CA5 and preloaded with biotin-hMBP(90-102); AE peptide 64 uM, 1 h 37 C, no unlabeled peptide; biotin still bound read by avidin-HRP (1.0 = PBS control, 0.0 = no DR1; low value = released).

Non-standard residues stand in square brackets, D forms with d. Hyp = O=C(O)[C@@H]1C[C@@H](O)CN1

Turning to YRMKLPKSAKPV [AE107], the “Times Baseline Response, E^k” value is recorded as 0.8 in test [1] (Table 1, AE peptide 16 μM (second value), 0.075 μM THMCC82-103, supernatant 1:2) and 1.0 in test [1] (Table 1, AE peptide 64 μM (first value), 0.075 μM THMCC82-103, supernatant 1:2). Besides, the “Times Baseline Response, E^d” value in [2] (Table 1, AE peptide 16 μM (second value), 0.4 μM HEL106-116, supernatant 1:4) is 4.8; in test [2] (Table 1, AE peptide 64 μM (first value), 0.4 μM HEL106-116, supernatant 1:4), 21.7. For the same molecule, the “release of hMBP(90-102) from HLA-DR1” value in the test with HLA-DR1 molecules [3] (AE peptide at 125 nM, additional experiments) is listed as “completely release”. Besides, in the test with HLA-DR1 molecules [3], the “release of biotin-labeled hMBP(90-102) from HLA-DR1 without second unlabeled antigenic peptide, in words” value is reported as “released”. For the same molecule, the “Relative Release” value in the test on HLA-DR1 molecules [3] is −0.07. Also, the “Relative Binding” value with HLA-DR1 molecules [4] is recorded as 1.04. In addition, the “Relative Enhancement” value with HLA-DR1 molecules [5] is 2.59.
As for Ac-LRMKlpk-NH2 [AE172], in test [6], the “T cell response relative to baseline with PBS-pretreated APC (NONE = 1.0), E^d” value stood at 1.1. Further, the “Times Baseline Response, E^k” value in test [1] (Table 12, AE peptide 1 μM (fourth value), supernatant 1:4) amounted to 2.8; in test [1] (Table 12, AE peptide 4 μM (third value), supernatant 1:4), 4.2; in [1] (Table 12, AE peptide 16 μM (second value), supernatant 1:4), 21.1; in test [1] (Table 12, AE peptide 64 μM (first value), supernatant 1:4) it was 46.2. Also, the “Times Baseline Response, E^d” value was found to be 2 in test [2] (Table 12, AE peptide 1 μM (fourth value), supernatant 1:2); 2 in [2] (Table 12, AE peptide 4 μM (third value), supernatant 1:2); 7 in [2] (Table 12, AE peptide 16 μM (second value), supernatant 1:2); 54 in [2] (Table 12, AE peptide 64 μM (first value), supernatant 1:2). Also, the “T cell response relative to baseline with PBS-pretreated APC (NONE = 1.0), E^k” value in test [7] amounted to 2.1.
As to “AE401: The N-terminal portion of AE100 (LRMKLPKPP)”, in the test with HLA-DR1 molecules [3], the “release of biotin-labeled hMBP(90-102) from HLA-DR1 without second unlabeled antigenic peptide, in words” value is reported as “retained capacity to release” and the “Relative Release” value was 0.16. The “Relative Binding” value in the test on HLA-DR1 molecules [4] turned out to be 0.45. In addition, the “Relative Enhancement” value with HLA-DR1 molecules [5] is recorded as 4.29.

B1: AE381 (peptide)
peptide: LRMKLPK
modifications: head-to-tail cyclization: the amino terminal amino group is coupled through an amide linkage to the carboxyl terminal group
For B1, the Relative Enhancement (of biotin-hMBP(90-102) binding to empty HLA-DR1) (relative to no AE peptide = 1) in [8] was 1.84. Further, the Relative Binding (of biotin-hMBP(90-102) to HLA-DR1) (fraction of positive control o.d.) in [9] is -0.12. Also, the Relative Release (fraction of positive control o.d.) in test [10] is 0.64; in test [11], -0.19; in [12], 0.5; in test [13] it was 0.09.

B2: AE206 (peptide)
peptide: Ac-LRLKLPK-NH2
In the case of B2, the Relative Enhancement (of biotin-hMBP(90-102) binding to empty HLA-DR1) (relative to no AE peptide = 1) in [8] was 2.57. For the same molecule, the Relative Binding (of biotin-hMBP(90-102) to HLA-DR1) (fraction of positive control o.d.) in [9] is -0.13. Also, the Relative Release (fraction of positive control o.d.) was 0.58 in [10], -0.29 in test [11], 0.08 in test [12] and 0.03 in test [13].

B3: AE143 (peptide)
peptide: Ac-YRMKL[Hyp]KSAK-NH2
SMILES: CSCC[C@H](NC(=O)[C@H](CCCNC(=N)N)NC(=O)[C@H](Cc1ccc(O)cc1)NC(C)=O)C(=O)N[C@@H](CCCCN)C(=O)N[C@@H](CC(C)C)C(=O)N1C[C@H](O)C[C@H]1C(=O)N[C@@H](CCCCN)C(=O)N[C@@H](CO)C(=O)N[C@@H](C)C(=O)N[C@@H](CCCCN)C(N)=O
Regarding B3, the Relative Release (fraction of positive control o.d.) in test [10] was 0.51; in [11], 0.21; in test [12], 0.58; in test [13], 0.35.

B4: AE108 (peptide)
peptide: YRMKLPKSAK
Turning to B4, the Relative Release (fraction of positive control o.d.) turned out to be 0.52 in test [10]; 1.14 in [14]; 0.14 in test [11]; 0.31 in test [12]; 0 in test [13].

B5: AE235 (peptide)
peptide: Ac-LRMKYPK-NH2
As for B5, the Relative Enhancement (of biotin-hMBP(90-102) binding to empty HLA-DR1) (relative to no AE peptide = 1) in test [8] is 0.61. In addition, in test [9], the Relative Binding (of biotin-hMBP(90-102) to HLA-DR1) (fraction of positive control o.d.) was determined as 0.15. The Relative Release (fraction of positive control o.d.) came to 1.05 in test [10]; 0.79 in [14]; 0.6 in [11]; 0.81 in test [12]; 0.48 in test [13].
